Laboratory results reported in patent publication US20170190775A1 (published 2017).
Numbering of substitutions follows the chain as printed. Names may count otherwise. Each block holds one binder with its values, some of them ahead of it.

Key:
[1] = target: T1, cTREM-1 construct, residues M1-R180 of SEQ ID NO: 12 with six histidine residues at the C-terminus (cynomolgus monkey); assay: HX-MS
T1 chain: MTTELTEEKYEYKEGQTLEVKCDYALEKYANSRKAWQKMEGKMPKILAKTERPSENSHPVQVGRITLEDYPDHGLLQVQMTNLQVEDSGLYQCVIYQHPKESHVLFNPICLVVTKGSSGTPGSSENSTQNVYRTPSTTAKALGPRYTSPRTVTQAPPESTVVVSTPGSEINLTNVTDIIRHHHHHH

[2] = target: T2, cynomolgus TREM-1 (cTREM-1) protein (cynomolgus monkey); assay: SPR, mAb captured by anti-Fc, cTREM-1 as analyte
T2 construct: also called cyno TREM-1
T2 chain: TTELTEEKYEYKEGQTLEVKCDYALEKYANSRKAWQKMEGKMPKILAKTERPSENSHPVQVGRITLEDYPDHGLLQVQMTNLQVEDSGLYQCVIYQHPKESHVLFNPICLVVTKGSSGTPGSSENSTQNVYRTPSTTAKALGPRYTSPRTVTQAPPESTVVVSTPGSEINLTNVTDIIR
Description: Binding studies were performed on a ProteOn Analyzer (BioRad) that measures molecular interactions in real time through surface plasmon resonance. Experiments were run at 25° C. and the samples were stored at 15° C. in the sample compartment. The signal (RU, response units) reported by the ProteOn is directly correlated to the mass on the individual sensor chip surfaces in six parallel flow cells. Anti-human Fc monoclonal or anti-murine Fc polyclonal antibody from Biacore human or mouse Fc capture kits were immobilized in horizontal direction onto flow cells of a GLM sensor chip according to the manufacturer's instructions. The final immobilization level of capture antibody was approximately 2600-6000 RU in different experiments. […] Binding of hTREM-1 or cTREM-1 proteins was conducted by injecting analyte (antigen) over all flow cells in horizontal direction to allow for comparative analyses of binding to different captured anti-TREM-1 antibodies relative to binding to the reference interspot. hTREM-1 or cTREM-1 proteins was diluted serially 1:3 to 1.2-100 nM or into running buffer, injected at 100 μl/min for 250 s and allowed to dissociate for 600s. The GLM surface was regenerated after each injection cycle of analyte via two 18 s injections of 10 mM Glycine, pH 1.7 and 50 mM NaOH at 100 μl/min. This regeneration step removed the anti-TREM-1 antibody and any bound TREM-1 protein from the immobilized capture antibody surface, and allowed for the subsequent binding of the next interaction sample pair.

[3] = target: T2, cynomolgus TREM-1 (cTREM-1) protein; assay: SPR, mAb captured by anti-Fc, cTREM-1 as analyte (Example 11)
Description: Binding studies were performed on a ProteOn Analyzer (BioRad) that measures molecular interactions in real time through surface plasmon resonance. Experiments were run at 25° C. and the samples were stored at 15° C. in the sample compartment. The signal (RU, response units) reported by the ProteOn is directly correlated to the mass on the individual sensor chip surfaces in six parallel flow cells.
Anti-human Fc monoclonal or anti-murine Fc polyclonal antibody from Biacore human or mouse Fc capture kits were immobilized in horizontal direction onto flow cells of a GLM sensor chip according to the manufacturer's instructions. The final immobilization level of capture antibody was approximately 2600-6000 RU in different experiments. […] This regeneration step removed the anti-TREM-1 antibody and any bound TREM-1 protein from the immobilized capture antibody surface, and allowed for the subsequent binding of the next interaction sample pair.

[4] = target: T3, cynomolgus TREM-1 partly humanised with back mutation 4 (construct 0243) (cynomolgus monkey); assay: SPR, TREM-1 variant captured by anti-His, Fab as analyte
T3 construct: Printed R52R = R52 kept
T3 chain: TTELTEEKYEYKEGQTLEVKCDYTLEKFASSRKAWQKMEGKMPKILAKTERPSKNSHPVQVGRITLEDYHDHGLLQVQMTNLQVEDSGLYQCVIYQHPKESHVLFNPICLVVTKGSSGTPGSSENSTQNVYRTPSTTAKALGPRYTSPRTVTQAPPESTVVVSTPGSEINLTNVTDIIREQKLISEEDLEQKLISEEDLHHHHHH
Description: (§1) Binding studies were performed on a ProteOn Analyzer that measures molecular interactions in real time through surface plasmon resonance. Experiments were run at 25° C. and the samples were stored at 15° C. in the sample compartment. The signal (RU, response units) reported by the ProteOn is directly correlated to the mass on the individual sensor chip surfaces in six parallel flow cells. Anti-His monoclonal antibody was immobilised onto 6 parallel flow cells of a GLM sensor chip using a 1:1 mixture of 0.4 M EDAC [1-ethyl-3-(3-dimethylaminopropyl) carbodiimide hydrochloride] and 0.1 M Sulfo-NHS [N-hydroxysulfosuccinimide]. […] Immobilisation was performed with all steps in horizontal direction. […] Cell culture medium from HEK 293 cells expressing wild type or different mutated variants of human or cynomolgus TREM-1 ECD was diluted 40-60 times in running buffer (10 mM HEPES, 150 mM NaCl, 3 mM EDTA, 0.05% surfactant P20, pH 7.4). TREM-1 proteins were injected over immobilised anti-His capture antibody in the vertical direction at 30 μl/min for 60 s. […] Each Fab was injected over parallel flow cells in the horizontal direction to allow for kinetic analysis of binding to TREM-1 variants captured by anti-His antibody. Prior to injection each Fab was diluted to 0, 5.5 (in one experiment), 16.7 and 50 nM in running buffer, and injected at 100 μl/min for 250 s (association time). The dissociation time following these injections was monitored for 10 minutes. The GLM chip was regenerated after each interaction cycle of TREM-1 and Fab via two 18 s injections of 10 mM Glycine and 50 mM NaOH at 100 μl/min. This regeneration step removed the TREM-1 variants and any bound Fab from the anti-His antibody surface, and allowed for the subsequent binding of the next interaction pair.

[5] = target: T4, A24T/Y28F/N30S/R32Q/P70H-cTREM-1-Cmyc2-His6 (construct 0244), partly humanised with back mutation 5 (cynomolgus monkey); assay: as above
T4 construct: the entry already carries the mutations
T4 chain: T3 chain with R32Q, K54E
Description: as §1

[6] = target: T5, cynomolgus TREM-1 partly humanised (construct 0239) (cynomolgus monkey); assay: as above
T5 chain: T3 chain with R32Q
Description: as §1

[7] = target: T6, cynomolgus TREM-1 partly humanised with back mutation 3 (construct 0242) (cynomolgus monkey); assay: as above
T6 construct: Printed N50N = N50 kept
T6 chain: T3 chain with S30N, R32Q
Description: as §1

[8] = target: T7, cynomolgus TREM-1 partly humanised with back mutation 2 (construct 0241) (cynomolgus monkey); assay: as above
T7 construct: Printed Y48Y = Y48 kept
T7 chain: T3 chain with F28Y, R32Q
Description: as §1

[9] = target: T8, A24T/Y28F/N30S/R32Q/E54K-cTREM-1-Cmyc2-His6 (construct 0245), partly humanised with back mutation 6 (cynomolgus monkey); assay: as above
T8 construct: the entry already carries the mutations
T8 chain: T3 chain with R32Q, H70P
Description: as §1

[10] = target: T9, cTREM-1-Cmyc2-His6 (construct 0238), cynomolgus TREM-1 wt (cynomolgus monkey); assay: as above
T9 construct: ECD with C-terminal cmyc2-His6 tag; also called wt cTREM-1
T9 chain: T3 chain with T24A, F28Y, S30N, K54E, H70P
Description: as §1

[11] = target: T10, cynomolgus TREM-1 partly humanised with back mutation 1 (construct 0240) (cynomolgus monkey); assay: as above
T10 construct: Printed A44A = A44 kept
T10 chain: T3 chain with T24A, R32Q
Description: as §1

- binding result [1]: binds
- Kd [2]: 3.6 nM
- Kd [3]: 3 nM
B1: mAb 0170 (antibody, human IgG4 S228P, kappa, V domains shown)
VH: EVQLVESGGGLVQPGGSLKLSCAASGFTFSTYAMHWVRQASGKGLEWVGRIRTKSSNYATYYAASVKGRFTISRDDSKNTAYLQMNSLKTEDTAVYYCTRDMGIRRQFAYWGQGTLVTVSS
VL: DIVLTQSPDSLAVSLGERATINCRASESVDTFDYSFLHWYQQKPGQPPKLLIYRASNLESGVPDRFSGSGSGTDFTLTISSLQAEDVAVYYCQQSNEDPYTFGQGTKLEIKR
notes: Final humanised antibody from hybridoma 14F113 with LC M4L back-mutation and HC CDR3 Q98I (Kabat); also called 14F113/14F69 hz variant LC Q98I

- binding result [4]: no binding (tested: up to 50 nM Fab)
- Kd [5]: 1 nM
- Kd [6]: 2 nM
- Kd [7]: 1 nM
- Kd [8]: 2 nM
- Kd [9]: 1 nM
- Kd [10]: 1 nM
- Kd [11]: 2 nM
B2: Fab region of mAb 0170 (Fab, V domains shown)
VH: B1 VH
VL: B1 VL
notes: also called 0170 Fab; Fab 0170
